Measurements published in article PMC5004899, “Architecture of the caveolar coat complex” (Journal of Cell Science, 2016).

Biological target: the molecule itself
Assay: cross-linking; DSP cross-linking in live HeLa cells; purified 80S-CCC; partial reduction of DSP crosslinks by titration of DTT; western blots

B1: cavin-1 (natural protein, human (endogenous in HeLa), UniProt Q6NZI2-1 1-390, looked up)
chain: MEDPTLYIVERPLPGYPDAEAPEPSSAGAQAAEEPSGAGSEELIKSDQVNGVLVLSLLDKIIGAVDQIQLTQAQLEERQAEMEGAVQSIQGELSKLGKAHATTSNTVSKLLEKVRKVSVNVKTVRGSLERQAGQIKKLEVNEAELLRRRNFKVMIYQDEVKLPAKLSISKSLKESEALPEKEGEELGEGERPEEDAAALELSSDEAVEVEEVIEESRAERIKRSGLRRVDDFKKAFSKEKMEKTKVRTRENLEKTRLKTKENLEKTRHTLEKRMNKLGTRLVPAERREKLKTSRDKLRKSFTPDHVVYARSKTAVYKVPPFTFHVKKIREGQVEVLKATEMVEVGADDDEGGAERGEAGDLRRGSSPDVHALLEITEESDAVLVDKSDSD
modifications: DSP-modified lysine residues (seven of 11 lysines in the HR1 domain, six of 17 in the HR2 domain; marked in Fig. 1D)
notes: human cavin-1 (PTRF), NP_036364.2; HR1 domain amino acids 49-163, HR2 domain amino acids 210-300; Detected with rabbit anti-PTRF (Abcam ab48824); also called PTRF; source: endogenous, HeLa lysate (cells DSP-cross-linked alive)
stoichiometry N: 3
